Experimental data taken from article PMC6234505.

Target: GST-SHP2 PTP DAQA (substrate trapping mutant D425A/Q506A)
Assay: pull-down

In the case of “YFP-GluN2B, tyrosine phosphorylated, in cell lysate (from UniProt Q00960 27-1482) (receptor)”, the fold more pulled down than by GST-SHP2 WT is reported as 14 fold.
